Experimental data: patent publication US20210324028A1 (Pfizer, published 2021)

Legend:
[1] = molecular target: T1, mouse PD-1 on doxycycline-induced 32D[pRF770+pRF791] cells (mouse, UniProt Q02242 25-288); test: cell-based or functional assay
T1 sequence (looked up): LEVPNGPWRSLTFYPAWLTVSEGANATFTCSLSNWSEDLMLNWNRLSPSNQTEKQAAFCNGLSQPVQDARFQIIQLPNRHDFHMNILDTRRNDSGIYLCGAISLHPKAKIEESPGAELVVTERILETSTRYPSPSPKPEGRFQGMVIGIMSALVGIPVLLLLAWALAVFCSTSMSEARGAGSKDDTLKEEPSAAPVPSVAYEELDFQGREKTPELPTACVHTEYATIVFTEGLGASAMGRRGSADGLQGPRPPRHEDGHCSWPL

[2] = molecular target: T2, IL-15 signaling receptor on 32D[pRF770+pRF791] cells (human CD122 plus mouse CD132) (human; mouse, UniProt P14784 27-551; P34902 23-369); test: cell-based or functional assay
T2 sequence (looked up) 1: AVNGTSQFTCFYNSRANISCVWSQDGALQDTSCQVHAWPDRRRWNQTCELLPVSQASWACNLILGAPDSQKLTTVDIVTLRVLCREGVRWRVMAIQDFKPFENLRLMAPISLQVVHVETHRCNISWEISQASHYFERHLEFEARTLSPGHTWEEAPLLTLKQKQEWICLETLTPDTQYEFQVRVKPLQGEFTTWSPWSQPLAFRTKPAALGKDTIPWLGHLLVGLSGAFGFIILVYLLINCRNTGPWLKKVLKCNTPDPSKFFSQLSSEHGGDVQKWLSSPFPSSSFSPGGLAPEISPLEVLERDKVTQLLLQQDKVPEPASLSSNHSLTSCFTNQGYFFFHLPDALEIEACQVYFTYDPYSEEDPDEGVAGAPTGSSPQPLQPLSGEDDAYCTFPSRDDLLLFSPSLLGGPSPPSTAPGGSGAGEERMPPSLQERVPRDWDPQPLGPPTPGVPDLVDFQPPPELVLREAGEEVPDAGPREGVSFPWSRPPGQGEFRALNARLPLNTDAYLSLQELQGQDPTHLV
T2 sequence (looked up) 2: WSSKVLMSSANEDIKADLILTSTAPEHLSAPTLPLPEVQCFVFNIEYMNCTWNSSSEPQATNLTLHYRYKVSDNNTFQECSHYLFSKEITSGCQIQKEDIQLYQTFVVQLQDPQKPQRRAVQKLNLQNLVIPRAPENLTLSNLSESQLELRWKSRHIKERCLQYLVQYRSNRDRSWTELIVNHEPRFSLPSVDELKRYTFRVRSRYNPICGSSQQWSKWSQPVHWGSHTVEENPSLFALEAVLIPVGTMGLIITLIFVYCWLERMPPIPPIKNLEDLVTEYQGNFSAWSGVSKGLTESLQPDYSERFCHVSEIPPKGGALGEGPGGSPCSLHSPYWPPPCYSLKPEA

human IL-15Rα = molecular target: T3, human IL-15Rα (human, UniProt Q13261 31-205, limits assumed); test: SPR 37C, fusion captured by anti-human Fc
T3 construct: also called hIL-15Rα; IL-15 receptor alpha
T3 sequence (Q13261 31-205 limits assumed): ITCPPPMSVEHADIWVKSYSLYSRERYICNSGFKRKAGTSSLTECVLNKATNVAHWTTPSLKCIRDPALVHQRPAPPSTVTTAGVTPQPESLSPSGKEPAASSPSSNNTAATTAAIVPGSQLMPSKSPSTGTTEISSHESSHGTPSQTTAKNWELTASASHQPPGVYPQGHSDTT
Summary of the method: (§1)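 Anti-PD-1–hIL-15 fusions captured at 10 μg/mL on an anti-human Fc surface, receptor injected at 37 °C in HEPES-buffered saline with 0.05% Tween-20 and 1 mg/mL BSA, pH 7.4; 5 min dissociation.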

human IL-2Rβ [3] = molecular target: T4, human IL-2Rβ (human, UniProt P14784 27-240, limits assumed); test: SPR, fusion captured
T4 construct: also called hIL-2Rβ; IL-2 receptor beta
T4 sequence (looked up): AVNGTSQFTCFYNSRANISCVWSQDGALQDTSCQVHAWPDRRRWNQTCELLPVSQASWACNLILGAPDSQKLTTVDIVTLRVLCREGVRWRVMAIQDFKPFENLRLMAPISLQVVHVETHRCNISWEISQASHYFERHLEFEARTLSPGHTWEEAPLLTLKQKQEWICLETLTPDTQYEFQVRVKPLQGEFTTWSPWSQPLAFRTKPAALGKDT
Method: Anti-human Fc sensor chips were prepared at 25° C. with a running buffer of 10 mM HEPES, 150 mM NaCl, 0.05% (v/v) Tween-20, pH 7.4. All surfaces of a Biacore CM4 sensor chip were activated with a 1:1 (v/v) mixture of 400 mM EDC and 100 mM NHS for 7 minutes, at a flow rate of 10 μL/min. An anti-human Fc reagent (Goat anti-human IgG Fc-γ specific, SouthernBiotech, Birmingham, Ala., Catalog #2014-01) was diluted to 50 μg/mL in 10 mM sodium acetate (pH 4.5) and injected on all flow cells for 7 minutes at 20 μL/min. All flow cells were blocked with 100 mM ethylenediamine in 200 mM Borate buffer pH 8.5 for 7 minutes at 10 μL/min.
All protein interaction experiments were performed at 37° C. using a running buffer of 10 mM HEPES, 150 mM NaCl, 0.05% (v/v) Tween-20, pH 7.4, 1 mg/mL BSA. Anti-PD-1-hIL-15 fusion proteins were captured at 10 μg/mL at a flow rate of 10 μL/min for 2 minutes. Different fusion proteins were captured in flow cells 2, 3 and 4. No protein was captured onto flow cell 1 which was used as a reference surface. […] After each analyte injection, dissociation was monitored for 5 minutes followed by regeneration of all flow cells with three 60-second injections of 75 mM phosphoric acid. […] For kinetic analysis, the double-referenced sensorgrams were fit globally to a simple 1:1 Langmuir with mass transport binding model using Biacore T200 Evaluation Software version 2.0. For steady-state affinity analysis, the double-referenced equilibrium binding responses were fit with a 1:1 Langmuir steady-state model using Biacore T200 Evaluation Software version 2.0.

human IL-2Rβ [4] = molecular target: T4, human IL-2Rβ; test: SPR 37C, fusion captured by anti-human Fc
Summary of the method: as §1

B1: xmPD-1-hIL15 V49R/E46G/E64Q/D30N (other)
heavy 1: HHHHHHHHGGGGSGSGGEVQLVESGGGLVKPGGSLELSCAASGFTFSSYWMSWVRQAPEKGLEWVAAISPSGGSTYYADSVKGRFTISRDNAKNTLFLQMTSLRSEDTAMYYCAKESWGAYYDLWGQGTTVTVSSASTKGPSVFPLAPCSRSTSESTAALGCLVKDYFPEPVTVSWNSGALTSGVHTFPAVLQSSGLYSLSSVVTVPSSNFGTQTYTCNVDHKPSNTKVDKTVERKCRVRCPRCPAPPVAGPSVFLFPPKPKDTLMISRTPEVTCVVVAVSHEDPEVQFNWYVDGVEVHNAKTKPREEQFNSTFRVVSVLTVVHQDWLNGKEYKCKVSNKGLPSSIEKTISKTKGQPREPQVYTLPPSREEMTKNQVSLTCLVKGFYPSDIAVEWESNGQPENNYKTTPPMLDSDGSFFLYSRLTVDKSRWQQGNVFSCSVMHEALHNHYTQKSLSLSPGK
heavy 2: EVQLVESGGGLVKPGGSLELSCAASGFTFSSYWMSWVRQAPEKGLEWVAAISPSGGSTYYADSVKGRFTISRDNAKNTLFLQMTSLRSEDTAMYYCAKESWGAYYDLWGQGTTVTVSSASTKGPSVFPLAPCSRSTSESTAALGCLVKDYFPEPVTVSWNSGALTSGVHTFPAVLQSSGLYSLSSVVTVPSSNFGTQTYTCNVDHKPSNTKVDKTVERKCEVECPECPAPPVAGPSVFLFPPKPKDTLMISRTPEVTCVVVAVSHEDPEVQFNWYVDGVEVHNAKTKPREEQFNSTFRVVSVLTVVHQDWLNGKEYKCKVSNKGLPSSIEKTISKTKGQPREPQVYTLPPSREEMTKNQVSLTCEVKGFYPSDIAVEWESNGQPENNYKTTPPMLDSDGSFFLYSKLTVDKSRWQQGNVFSCSVMHEALHNHYTQKSLSLSPGSGGGGGTSATATPGANWVNVISDLKKIEDLIQSMHIDATLYTESNVHPSCKVTAMKCFLLGLQRISLESGDASIHDTVQNLIILANNSLSSNGNVTESGCKECEELEEKNIKEFLQSFVHIVQMFINT
light: DIVMTQSPSSLSVSAGDKVTMSCRASQGISSWLAWYQQKPWQPPKLLIYKASTLESGVPDRFTGSGSGTDFTLTISSVQAEDLAVYYCQQSYSTPWTFGGGTKLEIKGTVAAPSVFIFPPSDEQLKSGTASVVCLLNNFYPREAKVQWKVDNALQSGNSQESVTEQDSKDSTYSLSSTLTLSKADYEKHKVYACEVTHQGLSSPVTKSFNRGEC
notes: not restated for this mutant; also called xmPD-IL15 V49R/E46G/E64Q/D30N
Fold change = EC50 (PD-1(low))/EC50 (PD-1+) [1]: 715 fold | pSTAT5 EC50 on PD-1+ 32D reporter cells [1]: 0.137 nM | pSTAT5 EC50 on PD-1(low) 32D reporter cells [2]: 98 nM | binding result (human IL-15Rα): no binding (tested: 3000 nM) | Kd (human IL-2Rβ [3]): > 3000 nM

B2: xmPD-1-hIL15 V49R/E46G/E64Q/D30N/N4K/M109A (other)
heavy 1: HHHHHHHHGGGGSGSGGEVQLVESGGGLVKPGGSLELSCAASGFTFSSYWMSWVRQAPEKGLEWVAAISPSGGSTYYADSVKGRFTISRDNAKNTLFLQMTSLRSEDTAMYYCAKESWGAYYDLWGQGTTVTVSSASTKGPSVFPLAPCSRSTSESTAALGCLVKDYFPEPVTVSWNSGALTSGVHTFPAVLQSSGLYSLSSVVTVPSSNFGTQTYTCNVDHKPSNTKVDKTVERKCRVRCPRCPAPPVAGPSVFLFPPKPKDTLMISRTPEVTCVVVAVSHEDPEVQFNWYVDGVEVHNAKTKPREEQFNSTFRVVSVLTVVHQDWLNGKEYKCKVSNKGLPSSIEKTISKTKGQPREPQVYTLPPSREEMTKNQVSLTCLVKGFYPSDIAVEWESNGQPENNYKTTPPMLDSDGSFFLYSRLTVDKSRWQQGNVFSCSVMHEALHNHYTQKSLSLSPGK
heavy 2: EVQLVESGGGLVKPGGSLELSCAASGFTFSSYWMSWVRQAPEKGLEWVAAISPSGGSTYYADSVKGRFTISRDNAKNTLFLQMTSLRSEDTAMYYCAKESWGAYYDLWGQGTTVTVSSASTKGPSVFPLAPCSRSTSESTAALGCLVKDYFPEPVTVSWNSGALTSGVHTFPAVLQSSGLYSLSSVVTVPSSNFGTQTYTCNVDHKPSNTKVDKTVERKCEVECPECPAPPVAGPSVFLFPPKPKDTLMISRTPEVTCVVVAVSHEDPEVQFNWYVDGVEVHNAKTKPREEQFNSTFRVVSVLTVVHQDWLNGKEYKCKVSNKGLPSSIEKTISKTKGQPREPQVYTLPPSREEMTKNQVSLTCEVKGFYPSDIAVEWESNGQPENNYKTTPPMLDSDGSFFLYSKLTVDKSRWQQGNVFSCSVMHEALHNHYTQKSLSLSPGSGGGGGTSATATPGANWVKVISDLKKIEDLIQSMHIDATLYTESNVHPSCKVTAMKCFLLGLQRISLESGDASIHDTVQNLIILANNSLSSNGNVTESGCKECEELEEKNIKEFLQSFVHIVQAFINT
light: DIVMTQSPSSLSVSAGDKVTMSCRASQGISSWLAWYQQKPWQPPKLLIYKASTLESGVPDRFTGSGSGTDFTLTISSVQAEDLAVYYCQQSYSTPWTFGGGTKLEIKGTVAAPSVFIFPPSDEQLKSGTASVVCLLNNFYPREAKVQWKVDNALQSGNSQESVTEQDSKDSTYSLSSTLTLSKADYEKHKVYACEVTHQGLSSPVTKSFNRGEC
notes: not restated for this mutant; also called xmPD1-hIL15_V49R-E46G-E64Q-N4K-D30N-M109A; xmPD-1-hIL15 VS49R/E46G/E64Q/D30N/N4K/M109A
binding result (human IL-2Rβ [4]): no binding (tested: 3000 nM) | binding result (human IL-15Rα): no binding (tested: 3000 nM)
